This experiment concerns the target Hsp90-CYF61 homodimer (used as WT in the ATPase assays) (S. cerevisiae) (UniProt P02829).
UniProt P02829, sequence (P02829 whole entry): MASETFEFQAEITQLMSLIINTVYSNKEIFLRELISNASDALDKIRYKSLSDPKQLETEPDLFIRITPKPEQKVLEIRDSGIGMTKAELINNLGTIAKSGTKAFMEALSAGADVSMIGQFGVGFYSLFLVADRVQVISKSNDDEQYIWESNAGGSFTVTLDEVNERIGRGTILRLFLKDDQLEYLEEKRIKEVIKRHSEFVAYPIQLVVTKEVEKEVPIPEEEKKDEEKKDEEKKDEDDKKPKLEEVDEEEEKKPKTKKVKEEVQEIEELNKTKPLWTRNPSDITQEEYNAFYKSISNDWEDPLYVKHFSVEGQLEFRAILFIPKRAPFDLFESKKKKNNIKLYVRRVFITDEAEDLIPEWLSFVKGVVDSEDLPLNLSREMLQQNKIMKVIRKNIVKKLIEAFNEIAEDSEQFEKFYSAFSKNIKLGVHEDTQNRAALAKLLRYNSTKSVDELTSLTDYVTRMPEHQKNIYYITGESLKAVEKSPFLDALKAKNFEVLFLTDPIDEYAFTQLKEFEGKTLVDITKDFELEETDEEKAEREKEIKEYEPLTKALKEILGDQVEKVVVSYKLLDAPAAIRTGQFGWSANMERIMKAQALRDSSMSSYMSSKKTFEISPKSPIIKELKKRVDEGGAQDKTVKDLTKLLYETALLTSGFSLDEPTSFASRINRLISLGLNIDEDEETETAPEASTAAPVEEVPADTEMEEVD

B1: Aha1 (activator of Hsp90 activity 1) cochaperone (natural protein)
chain: MVVNNPNNWHWVDKNCIGWAKEYFKQKLVGVEAGSVKDKKYAKIKSVSSIEGDCEVNQRKGKVISLFDLKITVLIEGHVDSKDGSALPFEGSINVPEVAFDSEASSYQFDISIFKETSELSEAKPLIRSELLPKLRQIFQQFGKDLLATHGNDIQVPESQVKSNYTRGNQKSSFTEIKDSASKPKKNALPSSTSTSAPVSSTNKVPQNGSGNSTSIYLEPTFNVPSSELYETFLDKQRILAWTRSAQFFNSGPKLETKEKFELFGGNVISELVSCEKDKKLVFHWKLKDWSAPFNSTIEMTFHESQEFHETKLQVKWTGIPVGEEDRVRANFEEYYVRSIKLTFGFGAVL
Turning to B1, the stimulation of Hsp90 ATPase activity by Aha1 (ATP-regenerating coupled enzyme assay; 6 uM Aha1, 2 uM Hsp90 dimer) is 20 fold.

The record behind these values is publication PMC12205646.
